{
  "source": "IntAct's records for PubMed 18387954",
  "parents": {"B1": {"name": "Src substrate cortactin (Homo sapiens), Q14247 (parent)", "chain": "MWKASAGHAVSIAQDDAGADDWETDPDFVNDVSEKEQRWGAKTVQGSGHQEHINIHKLRENVFQEHQTLKEKELETGPKASHGYGGKFGVEQDRMDKSAVGHEYQSKLSKHCSQVDSVRGFGGKFGVQMDRVDQSAVGFEYQGKTEKHASQKDYSSGFGGKYGVQADRVDKSAVGFDYQGKTEKHESQRDYSKGFGGKYGIDKDKVDKSAVGFEYQGKTEKHESQKDYVKGFGGKFGVQTDRQDKCALGWDHQEKLQLHESQKDYKTGFGGKFGVQSERQDSAAVGFDYKEKLAKHESQQDYSKGFGGKYGVQKDRMDKNASTFEDVTQVSSAYQKTVPVEAVTSKTSNIRANFENLAKEKEQEDRRKAEAERAQRMAKERQEQEEARRKLEEQARAKTQTPPVSPAPQPTEERLPSSPVYEDAASFKAELSYRGPVSGTEPEPVYSMEAADYREASSQQGLAYATEAVYESAEAPGHYPAEDSTYDEYENDLGITAVALYDYQAAGDDEISFDPDDIITNIEMIDDGWWRGVCKGRYGLFPANYVELRQ", "partner": "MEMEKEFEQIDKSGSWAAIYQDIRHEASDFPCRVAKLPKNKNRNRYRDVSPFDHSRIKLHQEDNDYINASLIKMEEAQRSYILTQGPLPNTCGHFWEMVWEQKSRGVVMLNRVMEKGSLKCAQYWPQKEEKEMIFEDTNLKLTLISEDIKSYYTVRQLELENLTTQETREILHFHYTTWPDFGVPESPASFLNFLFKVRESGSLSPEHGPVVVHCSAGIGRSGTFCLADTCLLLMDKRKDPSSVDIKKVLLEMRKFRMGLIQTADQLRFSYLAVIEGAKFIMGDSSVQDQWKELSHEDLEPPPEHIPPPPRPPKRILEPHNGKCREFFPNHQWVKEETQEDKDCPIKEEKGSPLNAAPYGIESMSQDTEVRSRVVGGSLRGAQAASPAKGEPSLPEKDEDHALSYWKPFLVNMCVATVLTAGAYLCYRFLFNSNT"}},
  "data": [
    {"variants_of": "B1", "conditions": "with ptn1_human PTPN1, P18031", "values": [
      {"variant": "Y446F", "effect of a mutation on the interaction": "disrupting interaction"}
    ]}
  ]
}
